Common to all, as to assay type: in vivo
Test [1] has as its system two-month-old C57Bl/6 mice treated with rmCCL11. Nature of the test: Y-maze test in young mice given recombinant mouse CCL11. As to conditions: 2-month-old mice; rmCCL11 i.p.; Compound 1 30 mg/kg p.o. b.i.d. How it is done: A large Y-maze test assesses short-term memory of the familiarity of a specific context. Mice are brought to the experimental room for at least 30 min of acclimation to the experimental room conditions (dim lighting) prior to testing. For the initial training trial, the mouse is placed at the end of one arm of a large Y-maze designated “start arm” (arm length: 15 inches). The third arm of the maze is blocked off, allowing the mouse to explore two of the three arms freely (“start arm” and “familiar arm”) for 5 min. Each arm contains spatial cues. One hour later, the mouse is placed back into the maze in the “start arm” and allowed to explore all three arms with the third arm unblocked (“novel arm”). Movements in and out of each arm are tracked using automated tracking software (CleverSys). Testing is performed under dim lighting, and the apparatus is cleaned with 70% ethanol between trials.
Two-month-old C57Bl/6 mice were dosed with either vehicle control or Compound 1 by oral gavage twice daily for 18 days. During the last week of treatment, mice were subjected to behavior testing prior to perfusion on the last day of treatment. All mice received 5 consecutive days of BrdU injection at 150 mg/kg IP immediately prior to treatment start. […]

Test [2] has the same test system. Nature of the test: Barnes maze test in young mice given recombinant mouse CCL11. As to conditions: 2-month-old mice; rmCCL11 i.p.; Compound 1 30 mg/kg p.o. b.i.d. An excerpt: A modified Barnes maze was used to assess spatial working/episodic like learning and memory. The Barnes maze apparatus consists of a 122 cm diameter circular platform with 40 escape holes, each with a diameter of 5 cm placed along three rings of varying distances from the center of the platform. An escape box is attached to one of the holes and all holes are left uncovered. Bright lights and a fan are trained on the maze to provide adverse stimuli to encourage escape. Visual cues are placed on all four sides of the maze. Mice are given a series of 4 or 5 trials with inter-trial intervals of approximately 10 min, and the maximum duration of each trial is 90 or 120 sec. For each trial, mice are placed in the center of the maze. After 10 seconds, mice are allowed to explore, and the trial is ended if the mouse has found and entered an escape box before the end of the trial. Mice that cannot find the escape box are led to it and allowed to enter and given 30 sec to remain before being returned to its home cage. Training is done for 4 days. Data that is recorded and analyzed include velocity, escape latency, and distance moved.
Two-month-old C57Bl/6 mice were dosed with either vehicle control or Compound 1 by oral gavage twice daily for 18 days. During the last week of treatment, mice were subjected to behavior testing prior to perfusion on the last day of treatment. […]

Test [3] has the same test system. Nature of the test: Open Field test in young mice given recombinant mouse CCL11. As to conditions: 2-month-old mice; rmCCL11 i.p.; Compound 1 30 mg/kg p.o. b.i.d., 2 weeks. The method, then:
Open Field is used to evaluate general locomotor activity and exploratory behavior in a novel environment. Mice are brought to the experimental room for at least 30 min for acclimation to the experimental room conditions (dim lighting) prior to testing. The testing arena consists of a 50 cm×50 cm square arena. Mice are placed in the center of an arena and tracked for 15 minutes. Time spent in the peripheral and centers zones is analyzed, along with rearing behavior. 70% ethanol is used to clean all surfaces between trials.
[…] During the last week of treatment, mice were subjected to behavior testing prior to perfusion on the last day of treatment. All mice received 5 consecutive days of BrdU injection at 150 mg/kg IP immediately prior to treatment start. […]

B1: rmCCL11: Recombinant mouse CCL11 (eotaxin-1), injected i.p. to impair behaviour in young mice (protein, UniProt P48298 24-97, looked up)
Eotaxin: HPGSIPTSCCFIMTSKKIPNTLLKSYKRITNNRCTLKAIVFKTRLGKEICADPKKKWVQDATKHLDQKLQTPKP
For the molecule B1, the “memory in the Y-maze” value in test [1] was “impaired memory in the Y-maze”. Besides, the “memory in the Barnes maze” value in test [2] is given as “impaired memory in the Barnes maze”. The “anxiety in the Open Field” value in test [3] was “significantly worsened anxiety”.

The values are drawn from US11382907B2, “Methods and compositions for treating aging-associated impairments using CCR3-inhibitors” (Alkahest, Inc., priority 2017, dated 2022).
